The values that follow come from patent US20110003886, “SELECTION OF RNA APTAMERS AS ANTI-MALARIA AGENTS” (FORSKARPATENT I SYD AB, published 2011).

Data set [1] deals with GST-DBL1alpha (PfEMP1 DBL1alpha) (Plasmodium falciparum). The data set can be described thus: competition. To be noted: 2'-F on all pyrimidines (C and U) [positions count without the 20-nt 5-prime fixed region], 30-fold molar excess unlabelled RNA.
Data set [2] deals with PfEMP1 on FCR3S1.2-infected erythrocytes (Plasmodium falciparum). As to the kind of experiment: cell_activity. To be noted: 2'-F on all pyrimidines (C and U) [positions count without the 20-nt 5-prime fixed region]; rosette rate about 35% of control at 258 nM; 1 mM MgCl2.
Data set [3] has as its system DBL1alpha-His (PfEMP1 Duffy binding-like domain 1alpha, strain FCR3S1.2) (Plasmodium falciparum). The data set can be described thus: pulldown. To be noted: 2'-F on all pyrimidines (C and U) [positions count without the 20-nt 5-prime fixed region], 40 nM RNA, 350-400 nM protein, Ni-NTA beads, PBSM, yeast RNA, 37 C, RNA assayed as 90 nt with 2x20 nt flanks.
A further data set concerns the target BSA (UniProt P02769 P02769:25-607). As to the kind of experiment: EMSA; 10 ug BSA negative control. To be noted: label: 32P; complex secondary structure predicted by mfold. As to the method: To study RNA/DBL1α^His interaction in solution a number of EMSA experiments were conducted. The protein used for these experiments was freshly eluted from the Ni-NTA beads to avoid long storage and freezing in solution to prevent precipitation of DBL1α^His The RNA was internally labelled with ³²P-ATP and migration after incubation with DBL1α^His or BSA was analysed on 10% native polyacrylamide gel. The upper band (177 nucleotide long RNA) seen in FIG. 4 is an incorrect product of the T7 transcription that is derived from a longer transcription template. This template is a product generated in the previous PCR reaction (binding of PCR primer to en external T7 site in the TOPO-vector). […] Throughout the EMSA experiments conducted, no real band shift was observed (RNA molecule bound to protein with slower migration).
FIG. 5. Mobility shift assay of selected clone e05. ˜30 ng internal ³²P-[αATP] labelled RNA was incubated with ˜300-400 ng DBL1α^His for 10 min. and loaded on 10% TBE-buffered PAA gel (+) together with negative control (−) incubated in the presence of 10 μg BSA.

Chain of BSA (P02769 25-607, one chain of several): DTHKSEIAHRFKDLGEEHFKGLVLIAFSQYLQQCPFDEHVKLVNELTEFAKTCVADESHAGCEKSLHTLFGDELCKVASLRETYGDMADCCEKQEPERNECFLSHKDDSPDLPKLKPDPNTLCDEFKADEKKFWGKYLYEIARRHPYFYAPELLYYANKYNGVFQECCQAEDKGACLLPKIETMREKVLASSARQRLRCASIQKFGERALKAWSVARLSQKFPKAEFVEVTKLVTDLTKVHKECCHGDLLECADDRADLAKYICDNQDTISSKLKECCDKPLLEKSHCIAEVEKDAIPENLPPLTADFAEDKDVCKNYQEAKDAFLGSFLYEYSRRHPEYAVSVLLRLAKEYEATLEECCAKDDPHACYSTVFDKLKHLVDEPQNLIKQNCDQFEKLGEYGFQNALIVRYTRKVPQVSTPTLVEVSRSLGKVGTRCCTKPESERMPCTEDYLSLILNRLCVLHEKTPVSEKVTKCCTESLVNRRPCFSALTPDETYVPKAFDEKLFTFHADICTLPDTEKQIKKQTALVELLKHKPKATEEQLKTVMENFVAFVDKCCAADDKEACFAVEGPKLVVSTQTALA

Consider “GGGAAUUCGAGCUCGGUACCUGCCAACCUUCGAUGCAAGAUAAUACUUUUGAUGGUGUAGUCGUAUUGUUCGUAGCAAGCUCUGCAGUCG [d12]”, for which the binding signal (% decrease of labelled RNA recovery) in data set [1] (60% decrease at 45-fold, no decrease with 30-fold e02 or pool 0) worked out at 40. Moreover, in data set [2], the activity (nM (complete rosette disruption)) was determined as 387. In addition, in data set [3] (clone also listed as SEQ 4/10), the binding signal (% RNA recovery) was found to be 70.

The molecule “GGGAAUUCGAGCUCGGUACCCUUCGAACGGCCCUGGUUGUUGGUUUUAAUUCAUUUAUCCGCGUGGUCACGGUCGUAGCAAGCUCUGCAGUCG [e05]” gave a binding signal (% decrease of labelled RNA recovery) in data set [1] of 40. This molecule gave an activity (nM (complete rosette disruption)) in data set [2] of 387. The same molecule registered a binding signal (% RNA recovery) in data set [3] (clone also listed as SEQ 6/12) of 70.

Molecule “GGGAAUUCGAGCUCGGUACCUCAUGUGCCAGUGUUUGAAAAAACGCGUUGAUUGCUGGUGUGGUGAGCUAGUCGUAGCAAGCUCUGCAGUCG” registered a binding signal (% decrease of labelled RNA recovery) in data set [1] of 40. In addition, the activity (nM (complete rosette disruption)) in data set [2] is 387. The same molecule yielded a binding signal (% RNA recovery) in data set [3] (clone also listed as SEQ 5/11) of 70.

B1: e05 (ssRNA)
RNA: GGGAAUUCGAGCUCGGUACCCUUCGAACGGCCCUGGUUGUUGGUUUUAAUUCAUUUAUCCGCGUGGUCACGGUCGUAGCAAGCUCUGCAGUCG
modifications: 2'-F on all pyrimidines (C and U) [positions count without the 20-nt 5-prime fixed region]
Take B1: the binding result with BSA is on record as “no binding”.
